Measured values reported in the DeepSol protein solubility set.

experiment: soluble on expression in E. coli; label from the status in PepcDB or PDB records

Sequence | soluble on expression in E. coli
MPPTGIFFNVNGKDIKEENVDPELTLAYYLRNKLGLRGTKLGCEEGVCGSCTVVLGTWDDSLNKAVYSAVNACLVPLFHVHKTFVITVEGVGSRDKIHPIQDRMARGHAVQCGFCSPGFVMSAYALLRNHPNPTIEQINAAIRANLCRCTGYRPILEALYSFSSSGGGCCGGKKAGAGCCKDLSSEDEAYEKLTSFNDFPEYDPSQEIIFPPSLRIFVDSENPVTLKGDRIELLLPKSIEQFKEFKKDRTVISSGLITRFIATRNPKEFSQKWITTKYVKEFNEVIENPETVVIGAAVNIQKMSDILSRSLSQNIGKEVDAFIKKFSSPQIANFATWTGGIVSGAKSSISVSDLLLLFNVLNAKLTLLTDSGDLTQVNIEEFVEKKLFATNTIVNTVFSSSITGQLFCLKLGETSEQDSTSFNFAALVGNNISRIFVGLGGPPKRLTSLEEHIFALKNLDVPDLCKTSGMGENKNIKIALTRLSKFMKNVEKTAETVDGLNYLQYFKPTERKSVGRPLANYFNERAITGEALYVNDIQTYNPVHLGFVLSTVPHAEILSIDATEALKLEGVVGFFGASDVPGNNSPGLQISNMNLPDDATIFADKKVESVGQVVGVIAANDVLLARRAAKLVKLEYKELPALVELKDAIVAKSLLGKVRHFGKSEYLVNESLVHSYKVLEGESSLGSQEHFYLETQSSLNYRIVHCSTQGTSFTQLMVAETMKIPAHKIIVKTKRMGGAFGGKLNNASWIACICSVVAKKLNRPTYGVGINSDGKVQGIHHQAWLNGGWSKDHTEGVTMVMGQFVDDVYNMGTVRYDGYPVKTNTNSNTAFRGYGNPQAKLVSEGVMRRIAREVGKSTEEVKKLNFAFEGEKRYLSGNIYSDAHIECWEYCTRWSDFEKRKETIENFNKTSKIVKRGIAMSSVRLALSHPGPPGHGVASLMINLDGSIQLSIGGTEMGQGLNQKMLQVCSEALKRPIDTITIVDCSTDKITNAPETGASHNADTNGLAVLACCERIMSRLQPIIDKNDGDWEKSIRDAYGAYVPLQCTEYGSVDREKLSIGEFEYPYNTTGACAVEMEVDTMTGYNRLLRVDIVMDVGESLNPAIDIGQIEGAFMQGYGLVTCEKITFNKETGQLNQNSAGQYKIPKSSDVPKDFRVKLLGINKANGAKVYSSKGIGEPPLMMSCGAVHSCIMNCIDDWRKENGIDKFVDTISPLSADKIQELCSCNN | not soluble
MAHHHHHHMWEETYVRACANLGVQPRNEVLAAVGGTAQLCGNTFANFENRLTDEELAALCETCRQISLVAVVRLPYNNITCRGATALAKAMKEGFSTLQYLDLSYNSINEEGANAIAAAATNYEMLSTLLLNGNPIGGGSGPCLKTLLESENTQLVTLDLEQTDQGLKSLVHIARGLVHNTTLTTLNLGRPLMTNPMDVSYVVEHLSLALKENRTLRFLGLSHFNMADCDLALLLSTLRDSAVTTLSLKGNKLSQASGEPLAQLLAHRPDFLSLDVTANRLRDVGALAIAAVIANHPGLRELQIGFNTIGGVGISALAQSLAANASITTLKLWGNDLTDESVRDLYAIRGRFESMEVTDFSFYVVDGCPMVARE | not soluble
MSLYAAYAGNLDPRLMTRRAPHSPLRATGWLNDWRLTFGGEHMGWEGALATIVEAPRSQVFVALYDIAPMDEDSMDRWEGVGLDIYRRMRVRVHTLEGEEAAWVYVLNGYEGGLPSARYLGELADAAESAGAPHDYVMELRKRPCLEHHHHHH | soluble
MGSDKIHHHHHHMTILSDVKALGQQIWLDNLSRSLVQSGELAQMLKQGVCGVTSNPAIFQKAFAGDALYADEVAALKRQNLSPKQRYETMAVADVRAACDVCLAEHESTGGKTGFVSLEVSPELAKDAQGTVEEARRLHAAIARKNAMIKVPATDAGIDALETLVSDGISVNLTLLFSRAQTLKAYAAYARGIAKRLAAGQSVAHIQVVASFFISRVDSALDATLPDRLKGKTAIALAKAAYQDWEQYFTAPEFAALEAQGANRVQLLWASTGVKNPAYPDTLYVDSLIGVHTVNTVPDATLKAFIDHGTAKATLTESADEARARLAEIAALGIDVETLAARLQEDGLKQFEEAFEKLLAPLV | not soluble
VGLGNLKTYGGLRQGSQSYNIDRLKKYLYYGDGTYDDLVNTLLNEAMNDQLESFASFYRGKKLYELPRGWPEIPAKRQR | not soluble
MGSDKIHHHHHHMNSELEINLRKLGFSVYEAKVYLTLLNLCNSTMKELSENAEIPYQKVYEVVKSLEDKGLVRVIEGRPKKVKLIDPSISLKVYRDKIVSELDYAIGNVISYWSEKGKGEADRSLHIKGKTIVMRMIRELVDKSNKIKVVWDILPEWLIKILKKYKGNLTVITSSNNLSLNAEVKYVKNIKSKFIIFDDSVLVTFNDQDEIVVDSCRGCVLQAEEHFDLLTYKSE | not soluble
MQNAIKTDASNSTVEARDEEPVAANDNKPASNPGTSVTEDSVAYIFASTYRDTLRFCHSTGAWFEWDGSYWRRNEVGLAAHHVRVMARDMSQGLSPKALATIRKRSFASGVEGFARNDPTFAVTIEAWDRDPFLLGTPDGTVDLRTGKMRAADPADGITKLTSTAPSAQADCPLWLRFLQDATGGDGEMIRFLQQWCGYCLTGDTREHALVFVHGDGGNGKSVFLNTTSYILHDYATTASMDTFVASRSDRHPTDLAMLRGARLVSASETEEGRAWAESRIKQMTGGDAISARFMRQDFFTFQPQFKLFVVGNHQPALHSVDAAARRRFNIVPFTRKPTKPDRELEAKLRGEAPAILRWMVDGCRDWQRNGLVRPASIVEATETYFAEQDTFGQWLKDACRVEPDNRSISDFVADLFKSWTDYAEASGERPGSQKGFVQSLTKSGFKKGQRVRGGQLYIGLQLLRQAEKEPSVRDLEHHHHHH | soluble
MGSDKIHHHHHHMRDLLQRPDLFSINTATLGYKTPLPAIIDACAARGIGAIAPWRRELQGEDLQQITRQLAASNMSVSGLCRSTYYTAPTLAERKLAIDDNRRALDDAAVLNAACYMQVVGGLPTGTKDLYEAREQVKQGIRQLLPHSKDVGVPIALEPLHPMTAADRSCLCTLRQALDWCDELDPDGEFGLGVAVDVYHVWWDPDLASQILRAGKRILAFHVSDWLMPTTDLVNDRGMPGDGVINIPSIRRLVENAGFNGAIELEIFSPYWWQKDINSTGNDSNLLIVFYVQIMPDDLVMQLHRF | not soluble
KIYSGRILIPLQHILKELKRIRANSLNRRLKTTGNNDELEDMIETLNSMLDRLDSAFKAEKSFVSHASHELNNPITAIQGECEISLLKERSTGEYIEALQRISSESKRISNLIRHLLFLSRQDEELIKSNMEAMSLPDMLNDLIKMNERIRLHYQETGKAAT | not soluble
MGSSHHHHHHSSGLEVLFQGPAMATKKVHIISHSHWDREWYMAYEQHHMRLINLIDDLLEVFQTDPDFHSFHLDGQTIILDDYLKVRPEREPEIRQAIASGKLRIGPFYILQDDFLTSSESNVRNMLIGKEDCDRWGASVPLGYFPDTFGNMGQTPQLMLKAGLQAAAFGRGIRPTGFNNQVDTSEKYSSQFSEISWQGPDNSRILGLLFANWYSNGNEIPTTEAEARLFWDKKLADAERFASTKHLLMMNGCDHQPVQLDVTKAIALANQLYPDYEFVHSCFEDYLADLADDLPENLSTVQGEITSQETDGWYTLANTASARIYLKQANTRVSRQLENITEPLAAMAYEVTSTYPHDQLRYAWKTLMQNHPHDSICGCSVDSVHREMMTRFEKAYEVGHYLAKEAAKQIADAIDTRDFPMDSQPFVLFNTSGHSKTSVAELSLTWKKYHFGQRFPKEVYQEAQEYLARLSQSFQIIDTSGQVRPEAEILGTSIAFDYDLPKRSFREPYFAIKVRLRLPITLPAMSWKTLALKLGNETTPSETVSLYDDSNQCLENGFLKVMIQTDGRLTITDKQSGLIYQDLLRFEDCGDIGNEYISRQPNHDQPFYADQGTIKLNIISNTAQVAELEIQQTFAIPISADKLLQAEMEAVIDITERQARRSQEKAELTLTTLIRMEKNNPRLQFTTRFDNQMTNHRLRVLFPTHLKTDHHLADSIFETVKRPNHPDATFWKNPSNPQHQECFVSLFDGENGVTIGNYGLNEYEILPDTNTIAITLLRSVGEMGDWGYFPTPEAQCLGKHSLSYSFESITKQTQFASYWRAQEGQVPVITTQTNQHEGTLAAEYSYLTGTNDQVALTAFKRRLADNALITRSYNLSNDKTCDFSLSLPNYNAKVTNLLEKDSKQSTPSQLGKAEILTLAWKKQ | soluble
EYVYIMTPYLILDSELEHAIQFAAERGVDVRIIMPGIPDKPIPYALAKTYYQALTKSGVKIYEYTLGFVHSKIFLSDNTKAVVGTINLDYRSLYHHFECAVYLYKVDAIQDIYRDYMDTLNKSRLVSLKDINNI | not soluble
MGSDKIHHHHHHMESIKQIYRMGHGPSSSHTMGPMRAAQMFLERNRGAVRFNVTLYGSLAATGKGHMTDAAILEVLQPVAKTNITWEPKTFLPFHPNGMLFESYNESGEELDTWTVYSIGGGTLANESFNELRTEQVYDMHTIKEIQAWCEKTGHSYWEYVEQHEGPSIWDYLAEVWEVMQDAVRRGLEAEGILPGGLGIRRKASDYMIRAKGYGSSIKSRGMVYAYALAVSEENACGGKIVTAPTCGSCGVMPAVLYHLKETREFRDSRILRALATAGLFGNVVRTNASVSGAEVGCQGEVGVACAMAAAAASQLFGGTPAQIEYAAEMGLEHHLGLTCDPVCGLVQIPCIERNAFAAARALDANTFSNFSDGKHRVSFDQVVEVMRQTGNDLPSLYKETSEGGLAKNMENSNN | not soluble
MSLASRRTDLIGMIVPDARQPFFGEMAHAVEQAAAERGKMVLVGNSDYVAEREVHYLRAFLGMRVSGLILVSHALNNQAAAEIEAWDARVVLLHERPELIDDVAVVTDDIGGAQLATRHLLEHGYAYVACLGGTAETPSVGDPVSDHVEGWRRAMQEAGIPTEGKLFEAPYNRYDAYQVGLELLAGPNRPPAIFCSTDDQAIGVLRAARELRIDVPGELAVAGFDDVKEAALTDPPLTTIASDRSAMARAAVDLVLDDGLRVAGSRRERLKLFPSRLVVRRSCGCAPQETPGSEGHHHHHH | soluble
MPELKVVVSIKQVPDVDELRIDPVTNNLVREGVPAVINPPDLHAIEEAVRLKERYGAKTIVITMGPPQADSALREALAMGIDEAYLISDRAMAGADTWATSYTISKAVQKLGGADLILFGRRAVDGETEQVGPQTGKWLGLPVIGYVSEIKSLEKDKIVVTRTTEFDEEVIEAPVPVVLTILEVANKPRQPDILSLIKAKTAKVTVWNKDDIKAEPNKIGLAGSPTKVIKVQPPPKTRKAEIIDGKKDVEKAAKWFLDKIFESLKE | not soluble
MKPKDFCTAENWAENLSALGYLAGWRFVRMLPLPIARRVFDLGADLASKSGKGMGQLRANLARVVGAENVTQALVKQATRSYARYWLEAFRLPAIARDPELLARLRKGTVGLDLLDESLAAGKGVVLTLPHSGNWDMAGAFLISHHGQFTTVAERVKPERLFEAFVEFRESLGFEVLPLTGGERPPFEKLKERLTSGGIVCLLGERDLRHSGVETTFFGEKTSMPAGPAQLAIETGAALHVVHPWFDDDGWGLSVSDAVTVDNLSDTVQRIAHLFMANITAHPADWHMLQPLWFGDLDPERLKRSREQTNVHKPVALQEDN | not soluble
MGHHHHHHSHMWKVVNLPTDLFNSVMNVGRFTEEIEWLKFLALACSALGVTITKTLKIVCEVLSCDHNGGLPRIPFSTFQFLYTYIAEVDGEICASHVSRMLNYIEQEVIGPDGLITVNDFTQNPRVWLE | not soluble
MQLKVPEHQVAGHIAKDGKPGPLVDDKGRFFKPLQGDSRGEIEVKFYESFSSNTEVPEHIHRYFPVYHGTQAVEGSDGAAMMVLENLLAEYTKPSVMDVKMGSRTWYPDASEEYIQKCLKKDTGTTTVSSGFRISGFEVYDHKESSFWKPERKLLRGLDVDGARLTLRKFVSSNSLSDTGSKPDSAFASSVYGGSHGILTQLLELKTWFENQTLYHFNSCSILMVYENESILKGNDDDARPQVKLVDFAHVLDGNGVIDHNFLGGLCSFINFIREILQSPDESADS | soluble
KEKARAMRVNKRAPQMDWNRKREIFSNF | soluble
